Measurements: patent publication EP3875478A1
One block for each substance: values may come before it.

Key:
human IgG1 (human) = assay: Biacore (SPR), format not described
[1] = target: CD64+V172-28z CAR (CD64 with insertion of Valine at 172 - TMCD8 - CD28 - truncated CD3z) on primary T lymphocytes (human); assay: cell-based or functional assay
[2] = target: CD64K130S CAR (4-1BB-CD3z) on primary T lymphocytes (human); assay: cell-based or functional assay
[3] = target: CD64wt-Bbz CAR (native CD64 - TMCD8 - 4-1BB - CD3z) on primary T lymphocytes (human); assay: cell-based or functional assay
[4] = target: CD64K130Y CAR (CD64 K130Y - TMCD8 - 4-1BB - full CD3z) on primary T lymphocytes (human); assay: cell-based or functional assay
[5] = target: CD64R175A CAR (CD64 R175A - TMCD8 - CD28 - CD3z) on primary T lymphocytes (human); assay: cell-based or functional assay

- Kd (human IgG1 (human)): 53 nM
- fold lower affinity for IgG1 than native CD64 (human IgG1 (human)): 5 fold
Substance: CD64 with K130H mutation, as measured by Biacore (receptor)

- Kd (human IgG1 (human)): 10 nM
Substance: native CD64 (human high affinity Fc gamma receptor alpha chain), as measured by Biacore

- % inhibition 20%HS vs 10%FBS (24h) [1]: 20.4%
- % inhibition 20%HS vs 10%FBS (3 days) [1]: 40.2%
- % inhibition 20%HS vs 10%FBS (7 days) [1]: 51.7%
- % inhibition (72h, 20% human serum vs 10% FBS) [1]: 31.5%
- gamma IFN secretion in proliferation assay, 10% FBS, mean (3 days) [1]: 438000
- gamma IFN secretion in proliferation assay, 10% FBS, mean (7 days) [1]: 753000
- gamma IFN secretion in proliferation assay, 20% human serum, mean (3 days) [1]: 262000
- gamma IFN secretion in proliferation assay, 20% human serum, mean (7 days) [1]: 364000
- gamma interferon secretion, 24h co-culture with Raji, 10% FBS, mean [1]: 11500
- gamma interferon secretion, 24h co-culture with Raji, 20% human serum, mean [1]: 9130
- gamma interferon secretion, 72h co-culture with Raji, 10% FBS, mean [1]: 399000
- gamma interferon secretion, 72h co-culture with Raji, 20% human serum, mean [1]: 273000
- inhibition of proliferation by human serum [1]: 38%
- cytokine secretion, 24h co-culture with Raji, antibody 2 ug/mL, 2,5% Human Serum, mean [2]: 5350
- cytokine secretion, 24h co-culture with Raji, antibody 2 ug/mL, 10% FBS, mean [2]: 5410
- cytokine secretion, 24h co-culture with Raji, antibody 2 ug/mL, 20% Human Serum, mean [2]: 2730
- percent inhibition 20%HS vs 10%FBS [2]: 49.5%
- % inhibition 20%HS vs 10%FBS (24h) [3]: 90.3%
- % inhibition 20%HS vs 10%FBS (3 days) [3]: 91.7%
- % inhibition 20%HS vs 10%FBS (7 days) [3]: 69.5%
- % inhibition (72h, 20% human serum vs 10% FBS) [3]: 92.8%
- gamma IFN secretion in proliferation assay, 10% FBS, mean (3 days) [3]: 203000
- gamma IFN secretion in proliferation assay, 10% FBS, mean (7 days) [3]: 107000
- gamma IFN secretion in proliferation assay, 20% human serum, mean (3 days) [3]: 16900
- gamma IFN secretion in proliferation assay, 20% human serum, mean (7 days) [3]: 32600
- gamma interferon secretion, 24h co-culture with Raji, 10% FBS, mean [3]: 12000
- gamma interferon secretion, 24h co-culture with Raji, 20% human serum, mean [3]: 1170
- gamma interferon secretion, 72h co-culture with Raji, 10% FBS, mean [3]: 123000
- gamma interferon secretion, 72h co-culture with Raji, 20% human serum, mean [3]: 8810
- inhibition of proliferation by human serum [3]: 6 fold
Substance: anti-CD20 antibody (Rituximab clone), IgG1

- cytokine secretion, 24h co-culture with Raji, antibody 2 ug/mL, 2,5% Human Serum, mean [4]: 2720
- cytokine secretion, 24h co-culture with Raji, antibody 2 ug/mL, 10% FBS, mean [4]: 6270
- cytokine secretion, 24h co-culture with Raji, antibody 2 ug/mL, 20% Human Serum, mean [4]: 292
- percent inhibition 20%HS vs 10%FBS [4]: 95.3%
Substance: anti-CD20 antibody IgG1 mutated at Leucine 235 to Alanine

- Kd (human IgG1 (human)): 74 nM
- fold reduction of the affinity of CD64 for IgG1 (human IgG1 (human)): 7 fold
Substance: CD64 with K130S, as measured by Biacore (receptor)

- cytokine secretion, 24h co-culture with Raji, antibody 2 ug/mL, 10% FBS, mean [4]: 20900
- cytokine secretion, 24h co-culture with Raji, antibody 2 ug/mL, 20% Human Serum, mean [4]: 9580
- percent inhibition 20%HS vs 10%FBS [4]: 54.2%
- cytokine secretion, 24h co-culture with Raji, antibody 2 ug/mL, 10% FBS, mean [5]: 55900
- cytokine secretion, 24h co-culture with Raji, antibody 2 ug/mL, 20% Human Serum, mean [5]: 27000
- percent inhibition 20%HS vs 10%FBS [5]: 51.6%
Substance: anti-CD22 antibody (m971 clone), IgG1
